± gives the standard deviation of the averaged measurements.
Test: total protein half-life in vivo (active degradation + dilution); higher = more stable protein
[1] = wild type E. coli NCM3722, growth: C-lim chemostat, doubling time 3 h
[2] = wild type E. coli NCM3722, growth: C-lim chemostat, doubling time 6 h
[3] = wild type E. coli NCM3722, growth: C-lim chemostat, doubling time 12 h
[4] = E. coli NCM3722 delta-clpP delta-lon delta-hslV, growth: N-lim chemostat, doubling time 6 h
[5] = E. coli NCM3722 delta-clpP, growth: N-lim chemostat, doubling time 6 h
[6] = E. coli NCM3722 delta-hslV, growth: N-lim chemostat, doubling time 6 h
[7] = E. coli NCM3722 delta-lon, growth: N-lim chemostat, doubling time 6 h
[8] = E. coli NCM3722 delta-smpB, growth: N-lim chemostat, doubling time 6 h
[9] = wild type E. coli NCM3722, growth: N-lim chemostat, doubling time 6 h
[10] = wild type E. coli NCM3722, growth: N-lim chemostat, doubling time 12 h
[11] = wild type E. coli NCM3722, growth: P-lim chemostat, doubling time 6 h
[12] = wild type E. coli NCM3722, growth: P-lim chemostat, doubling time 12 h

Row | Sequence | total protein half-life in vivo [1] [h] | total protein half-life in vivo [2] [h] | total protein half-life in vivo [3] [h] | total protein half-life in vivo [4] [h] | total protein half-life in vivo [5] [h] | total protein half-life in vivo [6] [h] | total protein half-life in vivo [7] [h] | total protein half-life in vivo [8] [h] | total protein half-life in vivo [9] [h] | total protein half-life in vivo [10] [h] | total protein half-life in vivo [11] [h] | total protein half-life in vivo [12] [h]
1 | MAGWHLDTKMAQDIVARTMRIIDTNINVMDARGRIIGSGDRERIGELHEGALLVLSQGRVVDIDDAVARHLHGVRQGINLPLRLEGEIVGVIGLTGEPENLRKYGELVCMTAEMMLEQSRLMHLLAQDSRLREELVMNLIQAEENTPALTEWAQRLGIDLNQPRVVAIVEVDSGQLGVDSAMAELQQLQNALTTPERNNLVAIVSLTEMVVLKPALNSFGRWDAEDHRKRVEQLITRMKEYGQLRFRVSLGNYFTGPGSIARSYRTAKTTMVVGKQRMPESRCYFYQDLMLPVLLDSLRGDWQANELARPLARLKTMDNNGLLRRTLAAWFRHNVQPLATSKALFIHRNTLEYRLNRISELTGLDLGNFDDRLLLYVALQLDEER | 2.67 ± 0.12 | 6.76 | 10.2 ± 3 | – | – | – | – | – | – | – | – | –
2 | MAHQLKLLKDDFFASDQQAVAVADRYPQDVFAEHTHDFCELVIVWRGNGLHVLNDRPYRITRGDLFYIHADDKHSYASVNDLVLQNIIYCPERLKLNLDWQGAIPGFNASAGQPHWRLGSMGMAQARQVIGQLEHESSQHVPFANEMAELLFGQLVMLLNRHRYTSDSLPPTSSETLLDKLITRLAASLKSPFALDKFCDEASCSERVLRQQFRQQTGMTINQYLRQVRVCHAQYLLQHSRLLISDISTECGFEDSNYFSVVFTRETGMTPSQWRHLNSQKD | 1.63 | – | – | – | – | – | – | – | – | – | – | –
3 | MAIEQTAITRATFDEVILPIYAPAEFIPVKGQGSRIWDQQGKEYVDFAGGIAVTALGHCHPALVNALKTQGETLWHISNVFTNEPALRLGRKLIEATFAERVVFMNSGTEANETAFKLARHYACVRHSPFKTKIIAFHNAFHGRSLFTVSVGGQPKYSDGFGPKPADIIHVPFNDLHAVKAVMDDHTCAVVVEPIQGEGGVTAATPEFLQGLRELCDQHQALLVFDEVQCGMGRTGDLFAYMHYGVTPDILTSAKALGGGFPISAMLTTAEIASAFHPGSHGSTYGGNPLACAVAGAAFDIINTPEVLEGIQAKRQRFVDHLQKIDQQYDVFSDIRGMGLLIGAELKPQYKGRARDFLYAGAEAGVMVLNAGPDVMRFAPSLVVEDADIDEGMQRFAHAVAKVVGA | 3.53 ± 0.35 | 6.1 ± 0.17 | 9.18 ± 0.29 | 5.24 ± 0.26 | 4.41 ± 0.43 | 4.47 ± 0.0086 | 4.76 ± 0.3 | 4.4 ± 0.099 | 4.42 ± 0.3 | 7.08 ± 0.24 | 5.71 ± 0.09 | 11.36 ± 0.11
4 | MAIHNRAGQPAQQSDLINVAQLTAQYYVLKPEAGNAEHAVKFGTSGHRGSAARHSFNEPHILAIAQAIAEERAKNGITGPCYVGKDTHALSEPAFISVLEVLAANGVDVIVQENNGFTPTPAVSNAILVHNKKGGPLADGIVITPSHNPPEDGGIKYNPPNGGPADTNVTKVVEDRANALLADGLKGVKRISLDEAMASGHVKEQDLVQPFVEGLADIVDMAAIQKAGLTLGVDPLGGSGIEYWKRIGEYYNLNLTIVNDQVDQTFRFMHLDKDGAIRMDCSSECAMAGLLALRDKFDLAFANDPDYDRHGIVTPAGLMNPNHYLAVAINYLFQHRPQWGKDVAVGKTLVSSAMIDRVVNDLGRKLVEVPVGFKWFVDGLFDGSFGFGGEESAGASFLRFDGTPWSTDKDGIIMCLLAAEITAVTGKNPQEHYNELAKRFGAPSYNRLQAAATSAQKAALSKLSPEMVSASTLAGDPITARLTAAPGNGASIGGLKVMTDNGWFAARPSGTEDAYKIYCESFLGEEHRKQIEKEAVEIVSEVLKNA | 2.98 ± 0.16 | – | 9.719 ± 0.083 | 5.51 ± 0.17 | 5.19 ± 0.29 | 5.82 ± 0.08 | 5.31 ± 0.31 | 5.64 ± 0.31 | 5.2 ± 0.099 | 9.34 ± 0.22 | 5.905 ± 0.033 | 11.6 ± 0.12
5 | MAIIPKNYARLESGYREKALKIYPWVCGRCSREFVYSNLRELTVHHIDHDHTNNPEDGSNWELLCLYCHDHEHSKYTEADQYGTTVIAGEDAQKDVGEAKYNPFADLKAMMNKKK [P0AAQ2] | 0.968 ± 0.29 | 1.73 | 2.42 | 4.15 ± 1.2 | 1.71 ± 0.098 | 1.5 ± 0.031 | 2.74 ± 0.48 | 1.63 ± 0.71 | 1.97 | 1.54 | 1.18 | 3.1 ± 0.97
6 | MAIKLEIKNLYKIFGEHPQRAFKYIEQGLSKEQILEKTGLSLGVKDASLAIEEGEIFVIMGLSGSGKSTMVRLLNRLIEPTRGQVLIDGVDIAKISDAELREVRRKKIAMVFQSFALMPHMTVLDNTAFGMELAGINAEERREKALDALRQVGLENYAHSYPDELSGGMRQRVGLARALAINPDILLMDEAFSALDPLIRTEMQDELVKLQAKHQRTIVFISHDLDEAMRIGDRIAIMQNGEVVQVGTPDEILNNPANDYVRTFFRGVDISQVFSAKDIARRTPNGLIRKTPGFGPRSALKLLQDEDREYGYVIERGNKFVGAVSIDSLKTALTQQQGLDAALIDAPLAVDAQTPLSELLSHVGQAPCAVPVVDEDQQYVGIISKGMLLRALDREGVNNG | 1.16 | – | – | 5.58 ± 1.6 | – | – | – | – | 5.28 | – | – | –
7 | MAIKLIAIDMDGTLLLPDHTISPAVKNAIAAARARGVNVVLTTGRPYAGVHNYLKELHMEQPGDYCITYNGALVQKAADGSTVAQTALSYDDYRFLEKLSREVGSHFHALDRTTLYTANRDISYYTVHESFVATIPLVFCEAEKMDPNTQFLKVMMIDEPAILDQAIARIPQEVKEKYTVLKSAPYFLEILDKRVNKGTGVKSLADVLGIKPEEIMAIGDQENDIAMIEYAGVGVAMDNAIPSVKEVANFVTKSNLEDGVAFAIEKYVLN [P0A8Y5] | 3.08 ± 0.22 | 5.71 ± 0.32 | 9.92 ± 0.27 | 4 ± 0.43 | 3.61 ± 0.23 | 3.55 ± 0.38 | 3.69 ± 0.1 | 3.408 ± 0.021 | 3.52 ± 0.2 | 5.28 ± 0.29 | 5.06 ± 0.13 | 11.4 ± 0.92
8 | MAIPAFGLGTFRLKDDVVISSVITALELGYRAIDTAQIYDNEAAVGQAIAESGVPRHELYITTKIWIENLSKDKLIPSLKESLQKLRTDYVDLTLIHWPSPNDEVSVEEFMQALLEAKKQGLTREIGISNFTIPLMEKAIAAVGAENIATNQIELSPYLQNRKVVAWAKQHGIHITSYMTLAYGKALKDEVIARIAAKHNATPAQVILAWAMGEGYSVIPSSTKRKNLESNLKAQNLQLDAEDKKAIAALDCNDRLVSPEGLAPEWD | 3.05 ± 0.099 | 5.39 ± 0.67 | 10.7 ± 6.2 | 4.33 ± 0.17 | 4.57 ± 0.071 | 4.59 ± 0.27 | 4.76 ± 0.34 | 4.78 ± 0.36 | 4.615 ± 0.044 | 8.62 ± 3.3 | 5.21 ± 0.41 | 11.4 ± 0.5
9 | MAIPKLQAYALPESHDIPQNKVDWAFEPQRAALLIHDMQDYFVSFWGENCPMMEQVIANIAALRDYCKQHNIPVYYTAQPKEQSDEDRALLNDMWGPGLTRSPEQQKVVDRLTPDADDTVLVKWRYSAFHRSPLEQMLKESGRNQLIITGVYAHIGCMTTATDAFMRDIKPFMVADALADFSRDEHLMSLKYVAGRSGRVVMTEELLPAPIPASKAALREVILPLLDESDEPFDDDNLIDYGLDSVRMMALAARWRKVHGDIDFVMLAKNPTIDAWWKLLSREVK [P0ADI4] | 2.18 ± 0.18 | 3.32 ± 0.47 | 5.74 ± 0.72 | 6.06 ± 2.3 | 2.48 | 1.47 | – | 1.73 ± 0.48 | – | 4.49 | – | 5.51
10 | MAIRKRFIAGAKCPACQAQDSMAMWRENNIDIVECVKCGHQMREADKEARDHVRKDEQVIGIFHPD [P0ADW8] | 1.8 ± 0.47 | 4.08 ± 1.4 | 2.51 | 4.91 ± 0.73 | 3.52 ± 0.46 | – | – | 2.16 ± 0.17 | – | 2.52 | 3.48 | 7.36 ± 1.6

— the supplement of paper PMC11246515
